The data set deals with the molecule itself. The experiment in a line: negative-stain EM + ThT fluorescence.

B1: CPEB3 residues 1-217 (prion-like domain 1 construct) (domain or fragment)
chain: MQDDLLMDKSKTQPQPQQQQRQQQQPQPESSVSEAPSTPLSSETPKPEENSAVPALSPAAAPPAPNGPDKMQMESPLLPGLSFHQPPQQPPPPQEPAAPGASLSPSFGSTWSTGTTNAVEDSFFQGITPVNGTMLFQNFPHHVNPVFGGTFSPQIGLAQTQHHQQPPPPAPAPQPAQPAQPPQAQPPQQRRSPASPSQAPYAQRSAAAAYGHQPIMT
Take B1: the binding result is recorded as “binds”.

(Values after publication doi:10.1101/2022.12.07.519389 (bioRxiv, 2022).)
